For 50 variants, abundance fitness results are on record in the Human Domainome abundance scans (Beltran et al. 2025).

B1: Cyclin-F, residues 28 to 80; numbered along this chain, P41002 (parent)
chain: RNLTILSLPEDVLFHILKWLSVEDILAVRAVHSQLKDLVDNHASVWACASFQE

± gives the uncertainty stated by the source.

The variants in the data set derive from B1. Description: abundance fitness (aPCA) (normalised: wild type 0, dead -1); higher = more abundant; growth selection in yeast, the domain comes from the species named. The conditions noted are these: Homo sapiens.
Take RNLTILSLPEDVLFHILKWLSVEDILAVRAVHCQLKDLVDNHASVWACASFQE: the abundance fitness is -0.828 ± 0.15. In the case of RNLTILSLPEDVLFHILKWLSVEDILAVRAVHNQLKDLVDNHASVWACASFQE it was -0.67 ± 0.14; in that of RNLTILSLPEDVLFHILKWLSVEDIKAVRAVHSQLKDLVDNHASVWACASFQE, -0.043 ± 0.17; in that of RNLTILSLPEDVLFHILKWLSVEDISAVRAVHSQLKDLVDNHASVWACASFQE, -0.5 ± 0.12.

For the variant RNLTILSLQEDVLFHILKWLSVEDILAVRAVHSQLKDLVDNHASVWACASFQE, the abundance fitness was -0.735 ± 0.14. In the case of RNLTILSLFEDVLFHILKWLSVEDILAVRAVHSQLKDLVDNHASVWACASFQE it was -0.621 ± 0.15; in that of RNLTILSLPEDVLFHILKWLSVEDILAVAAVHSQLKDLVDNHASVWACASFQE, -0.827 ± 0.19. To RNLTILSLPEDVLFHILKWLSVEDILAVQAVHSQLKDLVDNHASVWACASFQE belongs -0.801 ± 0.15. To RNLTILSLPEDVLFHILKWLSVEDILAVHAVHSQLKDLVDNHASVWACASFQE belongs -0.65 ± 0.14; to RNLTILSLPEDVLFHILKWLSVEDILAVSAVHSQLKDLVDNHASVWACASFQE, -0.655 ± 0.1. As to RNLTILSLPEDVLFHILKWLSVEDILAVRAVHSQLKHLVDNHASVWACASFQE, the abundance fitness is -0.086 ± 0.17. To RNLTILSLPEDVLFHILKWLSVEDILAVRAVHSQLKTLVDNHASVWACASFQE belongs 0.076 ± 0.12; to RNLTILSLPEDVLFHILKWLSVEDILAVRAVHSQLKILVDNHASVWACASFQE, 0.228 ± 0.34. In the case of RNLTILSLPEDVLFHILKWLSVEDILAVRAVHSQLKVLVDNHASVWACASFQE it was -0.049 ± 0.1; in that of RNLTILSLPEDVLFHILKWLSVEDILAVRAVHSQLKDLVDNHASVWACASRQE, -0.187 ± 0.09. To RNLTILSLPEDVLFHILKWLSVEDILAVRAVHSQLKDLVDNHASVWACASPQE belongs -0.184 ± 0.15. As to RNLTILSLPEDVLFHILKWLSVEDILAVRAVHSQHKDLVDNHASVWACASFQE, the abundance fitness is -0.831 ± 0.34.

Turning to RNLTILSLPEDVLFHILKWLSVEDILAVRAVHSQQKDLVDNHASVWACASFQE, the abundance fitness was -0.861 ± 0.18. In the case of RNLTILSLPEDVLFHILKWLSVEDILAVRAVHSQSKDLVDNHASVWACASFQE it was -0.786 ± 0.14.

RNLTILSLPEDVLFHILKWLSVEDILAVRAVHSQYKDLVDNHASVWACASFQE: the abundance fitness is -0.687 ± 0.41. In the case of RNLTILSLPEDVLFHILKWLSVEDILAVRAVHSQLKDKVDNHASVWACASFQE it was -0.34 ± 0.17; in that of RNLTILSLPEDVLFHILKWLSVEDILAVRAVHSQLADLVDNHASVWACASFQE, -0.561 ± 0.13; in that of RNLTILSLPEDVLFHILKWLSVEDILAVRAVHSQLYDLVDNHASVWACASFQE, -0.883 ± 0.23. For the variant RNLTILSLPEDVLFHILKWLSVEDILAVRAVHSQLHDLVDNHASVWACASFQE, the abundance fitness is -0.445 ± 0.15.

With RNLTILSLPEDVLFHILKWLSSEDILAVRAVHSQLKDLVDNHASVWACASFQE, the abundance fitness is -0.452 ± 0.083. To RNLTILSLPEDVLFHILKWLSAEDILAVRAVHSQLKDLVDNHASVWACASFQE belongs -0.142 ± 0.085; to RNLTILSLPEDVLFHILKWLSVEDGLAVRAVHSQLKDLVDNHASVWACASFQE, -1.08 ± 0.14; to RNLTILSLPEDVLFHILKWLSVEDYLAVRAVHSQLKDLVDNHASVWACASFQE, -0.971 ± 0.23. To RNLTILSLPEDVLFHILKWLSVEDTLAVRAVHSQLKDLVDNHASVWACASFQE belongs -0.703 ± 0.17; to RNLTILSLPEDVLFHILKWLSVEDILAVRAVHSQLKDLVDNHASVWACFSFQE, -0.663 ± 0.24; to RWLTILSLPEDVLFHILKWLSVEDILAVRAVHSQLKDLVDNHASVWACASFQE, -0.871 ± 0.13.

RTLTILSLPEDVLFHILKWLSVEDILAVRAVHSQLKDLVDNHASVWACASFQE: the abundance fitness is -0.168 ± 0.11. To RVLTILSLPEDVLFHILKWLSVEDILAVRAVHSQLKDLVDNHASVWACASFQE belongs -0.089 ± 0.11; to RNLTILSLPEDVLFHILKWLSVCDILAVRAVHSQLKDLVDNHASVWACASFQE, -0.627 ± 0.23.

RNLTILSLPEDVLFHILKWLSVPDILAVRAVHSQLKDLVDNHASVWACASFQE: the abundance fitness was -0.236 ± 0.18. To RNLTILSLPEDVLFHILKWLSVKDILAVRAVHSQLKDLVDNHASVWACASFQE belongs -0.105 ± 0.14; to RNLTILSLPEDVLFHILKWLSVWDILAVRAVHSQLKDLVDNHASVWACASFQE, -0.577 ± 0.23. As to RNLTILSLPEDVLFHILKWLCVEDILAVRAVHSQLKDLVDNHASVWACASFQE, the abundance fitness was -0.311 ± 0.18. With RNLTILSLPEDVLFHILKWLSVEDILAVRAVKSQLKDLVDNHASVWACASFQE, the abundance fitness was -0.912 ± 0.2.

Turning to RNLTILSLPEDVLFHILKWLSVEDILAVRAVASQLKDLVDNHASVWACASFQE, the abundance fitness was -0.438 ± 0.1. In the case of RNLTILSLPEDVLFHILKWLSVEDILAVRAVWSQLKDLVDNHASVWACASFQE it was -0.937 ± 0.19; in that of RNLTILSLPEDVLFHILKWLSVEDILAVRAVHSQLKDLVDNHGSVWACASFQE, -0.409 ± 0.33; in that of RNLTILSLPEDVLFHILKWLSVEDILAVRAVHSQLKDLVDNHASEWACASFQE, 0.362 ± 0.11.

Turning to RNLTILSLPEDVLFHCLKWLSVEDILAVRAVHSQLKDLVDNHASVWACASFQE, the abundance fitness was -0.341 ± 0.18.

For the variant RNLTILSLPEDVLFHNLKWLSVEDILAVRAVHSQLKDLVDNHASVWACASFQE, the abundance fitness was -1.04 ± 0.34. To RNLTILSLPEDILFHILKWLSVEDILAVRAVHSQLKDLVDNHASVWACASFQE belongs 0.033 ± 0.093; to RNLTILSLPEDFLFHILKWLSVEDILAVRAVHSQLKDLVDNHASVWACASFQE, -1.02 ± 0.22.

For the variant RNLTILELPEDVLFHILKWLSVEDILAVRAVHSQLKDLVDNHASVWACASFQE, the abundance fitness was -0.27 ± 0.11. In the case of RNLTILQLPEDVLFHILKWLSVEDILAVRAVHSQLKDLVDNHASVWACASFQE it was -0.232 ± 0.13; in that of RNLTILHLPEDVLFHILKWLSVEDILAVRAVHSQLKDLVDNHASVWACASFQE, -0.242 ± 0.15.
